In patent publication US20210347908A1 (ELPISCIENCE SUZHOU BIOPHARMA, published 2021):
Changes are numbered by the printed parent chain.

T1: full length C57BL/6 mouse SIRPα stably expressed on CHOK1 cells (mouse (C57BL/6), UniProt P97797 32-513)
T1 construct: whole, on cells; also called CHOK1-C57BL/6 mouse SIRPα-2.22 cells
T1 sequence (looked up): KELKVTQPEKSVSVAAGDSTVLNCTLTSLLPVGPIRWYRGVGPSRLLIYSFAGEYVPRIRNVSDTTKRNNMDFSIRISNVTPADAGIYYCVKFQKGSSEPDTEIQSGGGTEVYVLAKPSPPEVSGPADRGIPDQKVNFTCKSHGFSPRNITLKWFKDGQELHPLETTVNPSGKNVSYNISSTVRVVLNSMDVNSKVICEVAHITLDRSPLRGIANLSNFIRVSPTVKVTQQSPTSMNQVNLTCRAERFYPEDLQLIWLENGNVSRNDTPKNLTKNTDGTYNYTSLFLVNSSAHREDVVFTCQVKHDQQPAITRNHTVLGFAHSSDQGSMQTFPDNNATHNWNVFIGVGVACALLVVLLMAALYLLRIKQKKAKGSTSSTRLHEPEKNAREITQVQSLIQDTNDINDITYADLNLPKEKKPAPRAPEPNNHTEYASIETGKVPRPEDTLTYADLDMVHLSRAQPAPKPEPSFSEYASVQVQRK

B1: chimeric antibody 060c (antibody, V domains shown)
VH: QVQLKESGPGLVAPSESLSITCTVSGFSLTNYDISWIRQSPGKGLEWLGVIWTGGDTNFNSAFMSRLSISKDKSKSQVFLKLNSLQTDDTAIYYCVRVQYFGGSYGPMDYWGQGISVTVSS
VL: DIQMTQASSYLSVSLGGRVTITCEASDHINDWLAWYQQTPGNAPRLLISGATSLETGVPSRFSGSGSGKDYTLSITSLQTEDIATYYCQQYWNTPLTFGAGTRLELK
B2: chimeric antibody 055c (antibody, V domains shown)
VH: EVKLVESEGGLVQPGDSMKLSCTASGFTFSDYFMTWIRQVPEKGLEWIANVNYDGRSTYYLDSLKSRFIISRDNANNILYLQMSSLKSEDTATYYCAREGSQTPLYAVDYWGQGTSVTVSS
VL: DIVMTQSQKFMSTTVGDRVNITCKASQNVGTAVAWYQQKPGQSPKLLIYLASNRYTGVPDRFTGSGSGTDFTLTVSDMRSEDLADYFCQQYSIYPFTFGSGTKLEIK
B3: chimeric antibody 035c (antibody, V domains shown)
VH: QIQLVQSGPELRKPGETVKISCKASGYSFTNYAMNWVKQAPGKVLKWMGFINTYTGEPTYADDFKGRFAFSLETSASTAYLQINNLKNEDTATYFCTRTRGYYDFDGGAFDYWGQGTSLTVSS
VL: DIVMTQSQKFMSTSIGDRVSVTCKASQNVGTHLAWYQQKPGQSPKALIFSASYRYIGVPDRFTGSGSGTDFTLTITNVQSEDLAEYFCQQYNTYPLTFGAGTKLELK
B4: chimeric antibody 074c (antibody, V domains shown)
VH: QVQLQQPRAELVKPGASVMLSCKASGYTFSSYWIHWVRQGPGQGLEWIGLIHPNSGNTDCSETFKNKATLTVDTSSSTAYMQLSSLASEDSAVYYCARDGASYDWFVHWGQGTLVTVSA
VL: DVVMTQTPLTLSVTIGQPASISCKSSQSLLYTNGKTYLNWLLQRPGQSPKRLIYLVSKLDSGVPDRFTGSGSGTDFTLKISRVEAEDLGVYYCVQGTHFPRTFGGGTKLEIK
B5: chimeric antibody 050c (antibody, V domains shown)
VH: QIQLVQSGPELKKPGETVKISCKASGYTFTHYSMHWVKQAPGKGLKWMGWINTETAEPTYVDDFKGRFAFSLEASASTAFFQINNLKNEDTATYFCARGGLRQGDYWGQGTTLTVSS
VL: QIVLTQSPPIMSASPGEKVTLTCSATSSVSASYLYWFQQKPGSSPKLWIYSTSNLASGVPARFSGSGSGTSYSLTISNMEPADAASYFCHQWSSYPYTFGGGTKLEIK
B6: chimeric antibody 022c (antibody, V domains shown)
VH: QIQLVQSGPELKKPGETVKISCKASGYTFTDYAMHWVKQAPGKGLKWMGWKNTETGESTYAEDFKGRFAFFLETSASTAYLQINNVKNEDTATYFCARGGYGSNYVMDYWGQGTSVIVSS
VL: DIQMTQSSSSFSVSLGDRVTITCKASEDIYNRLAWYQQKPGNAPRLLISGATSLETGVPSRFSGSGSGKDYTLSITSLQTEDVATYYCQQYWNSPRTFGGGTKLEIK
B7: chimeric antibody 001c (antibody, V domains shown)
VH: EVKLEESGGGLVQPGGSMKLSCVASGFTFRNYWMNWVRQSPERGLEWIAEISLKSNTYATHYAESVKGRFAISRDGSKSSFYLQMNDLRAEDTGIYYCTTFTKVVADWHLDVWGAGTTVTVSS
VL: DVLMTQTPLSLPVSLGDQASISCRSSQNIVHSNGNTYLEWYLQKPGQSPKLLIYKVSNRFSGVPDRFSGSGSGTDFTLRISRVEAEDLGVYYCFQGSHVPFTFGSGTKLEIK
B8: chimeric antibody 002c (antibody, V domains shown)
VH: B7 VH with K19I, S52T, G76D, A90P
VL: B7 VL with V56I, K112Q
B9: chimeric antibody 032c (antibody, V domains shown)
VH: B7 VH with K3R, A24V, S52T, G76D, A90P
VL: B7 VL with S14N
B10: Antibody 074 (hybridoma antibody) (antibody, V domains shown)
VH: B4 VH
VL: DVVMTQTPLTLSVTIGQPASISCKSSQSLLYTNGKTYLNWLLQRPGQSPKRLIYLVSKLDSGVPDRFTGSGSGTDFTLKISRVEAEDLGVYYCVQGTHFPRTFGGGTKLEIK
notes: mouse hybridoma antibody
B11: Antibody 050 (hybridoma antibody) (antibody, V domains shown)
VH: B5 VH
VL: B5 VL
notes: mouse hybridoma antibody
B12: Antibody 022 (hybridoma antibody) (antibody, V domains shown)
VH: B6 VH
VL: B6 VL
notes: mouse hybridoma antibody

target: T1, full length C57BL/6 mouse SIRPα stably …; assay: FACS on CHOK1 cells
Procedure: (§1) Species cross reactivity of the purified hybridoma antibodies against human, cyno and mouse SIRPα was determined by FACS assay using CHOK1-human SIRPα v1-1B4 cells, CHOK1-cyno SIRPα-2A2 cells, and CHOK1-C57BL/6 mouse SIRPα-2.22 cells, which stably expressing SIRPα protein. Briefly the antibodies were incubated with 2×10⁵ target cells at 4° C. for 1 hour. After washing, fluorescence labeled anti-mouse or anti-human IgG 2nd antibody (Life Technologies) was added and incubated at 4° C. for 1 hour. Geometric median fluorescence intensity was detected and EC₅₀ was calculated. In particular, it is noted, in contrast to the other antibodies tested in the same experiment, 060 cannot bind with cyno SIRPα and 035 has cross reactivity against C57BL/6 mouse SIRPα.
(§2) The purified chimeric antibodies were applied for binding specificity analysis and species cross reactivity analysis (refer to methods described in Example 3.3 and 3.4). FIGS. 1A to 1D show binding specificity of anti-SIRPα chimeric antibodies against recombinant proteins of human SIRPα v1 ECD (A), human SIRPα v2 ECD (B), human SIRPβ ECD (C) and human SIRPγ ECD (D) as measured by ELISA analysis.

Binder	binding result	MFI at 10 nM
B1	no binding (tested: 10 nM)	
B2	no binding (tested: 10 nM)	
B3		13400 MFI
B4	no binding (tested: 10 nM)	
B5	no binding (tested: 10 nM)	
B6	no binding (tested: 10 nM)	
B7	no binding (tested: 10 nM)	
B8	no binding (tested: 10 nM)	
B9	no binding (tested: 10 nM)	

target: T2, full length human SIRPα v1 stably expressed on CHOK1 cells (human, UniProt P78324 31-504); assay: FACS on CHOK1 cells
T2 construct: whole, on cells; also called CHOK1-human SIRPα v1-1B4 cells; CHOK1-human SIRPα v1
T2 sequence (P78324 31-504): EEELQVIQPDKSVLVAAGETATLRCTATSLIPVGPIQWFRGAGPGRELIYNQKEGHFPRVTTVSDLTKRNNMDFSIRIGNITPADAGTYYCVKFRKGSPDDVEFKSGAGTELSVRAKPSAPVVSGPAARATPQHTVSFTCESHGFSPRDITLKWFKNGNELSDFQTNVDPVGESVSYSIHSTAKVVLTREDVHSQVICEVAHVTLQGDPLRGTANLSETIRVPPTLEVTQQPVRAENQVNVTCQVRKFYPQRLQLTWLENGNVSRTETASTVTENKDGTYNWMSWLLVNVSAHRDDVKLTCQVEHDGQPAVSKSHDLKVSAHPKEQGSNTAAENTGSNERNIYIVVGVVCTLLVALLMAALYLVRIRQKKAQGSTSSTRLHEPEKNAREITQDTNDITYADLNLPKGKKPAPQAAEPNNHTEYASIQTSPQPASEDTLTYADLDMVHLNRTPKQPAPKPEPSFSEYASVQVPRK
Procedure: as §1, §2

Binder	EC50
B1	2.8 nM
B2	3.4 nM
B3	1.3 nM
B4	5.5 nM
B5	2.4 nM
B6	1.7 nM
B7	1.7 nM
B8	2.4 nM
B9	3 nM

target: T3, Fc tagged human SIRPα v1 ECD recombinant protein (human, UniProt P78324 31-370); assay: ELISA
T3 construct: range 1-370; cloned range M1-R370 includes the signal peptide; also called hSIRPα V1; not shown: human IgG Fc region (hFc) of the pCPC vector
T3 sequence (P78324 31-370 limits assumed): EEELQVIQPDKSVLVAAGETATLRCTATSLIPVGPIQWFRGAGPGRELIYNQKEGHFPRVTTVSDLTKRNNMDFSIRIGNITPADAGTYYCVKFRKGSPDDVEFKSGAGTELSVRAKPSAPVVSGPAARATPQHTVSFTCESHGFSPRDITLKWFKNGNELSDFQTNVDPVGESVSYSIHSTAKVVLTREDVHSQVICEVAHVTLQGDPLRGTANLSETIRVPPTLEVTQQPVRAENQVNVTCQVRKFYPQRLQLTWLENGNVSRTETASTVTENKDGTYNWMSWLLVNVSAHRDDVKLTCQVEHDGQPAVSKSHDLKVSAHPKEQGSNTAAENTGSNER
Procedure: (§3) Binding specificity of the purified hybridoma antibodies against SIRP family members was detected by ELISA assay using recombinant proteins of Fc tagged human SIRPα v1 ECD, human SIRPα v2 ECD, human SIRPβ ECD and human SIRPγ ECD. Briefly the antibodies were incubated with ELISA microplate coated antigens at 37° C. for 1 hour. After washing, horseradish peroxidase (HRP) labeled anti-mouse or anti-human IgG 2nd Ab (Sigma) was added and incubated at 37° C. for 1 hour. Then, 100 μl/well of TMB solution (Biotechnology) was added. After incubation for 15 minutes at room temperature, the reaction was stopped by the addition of 50 μl of 1N HCl. OD 450 nm was read and EC₅₀ was calculated. Other than 060 and HEFLB, all of the antibodies as tested can bind with both human SIRPα v1 and SIRPα v2. 060 and HEFLB can bind with human SIRPα v1 but not v2. Other than 055, all of the antibodies as tested can bind with human SIRPβ. In comparison with other known anti-SIRPα antibodies, only 022, 035 and 050 can bind with human SIRPγ weakly.
as §2

Binder	EC50
B1	0.08 nM
B2	0.11 nM
B3	0.08 nM
B4	0.14 nM
B5	0.11 nM
B6	0.11 nM
B7	0.12 nM
B8	0.06 nM
B9	0.12 nM

target: T2, full length human SIRPα v1 stably …; assay: FACS on CHOK1 cells; remark: another data set of the same source
Procedure: as §1, with “SIRPα. […]” for “SIRPα.”

Binder	EC50
B1	2.8 nM
B2	3.4 nM
B3	1.3 nM
B4	5.5 nM
B5	2.4 nM
B6	1.7 nM
B7	1.7 nM
B8	2.4 nM
B9	3 nM

target: T2, full length human SIRPα v1 stably …; assay: FACS on CHOK1 cells; remark: another data set of the same source
Procedure: as §1

Binder	EC50
B3	1.5 nM
B10	1 nM
B11	1.3 nM
B12	2.1 nM

target: T3, Fc tagged human SIRPα v1 ECD …; assay: ELISA; remark: another data set of the same source
Procedure: as §3, §2

Binder	EC50
B1	0.08 nM
B2	0.11 nM
B3	0.08 nM
B4	0.14 nM
B5	0.11 nM
B6	0.11 nM
B7	0.12 nM
B8	0.06 nM
B9	0.12 nM
